Assay results reported in the supplement of paper PMC11246515.
± gives the standard deviation of the averaged measurements.

Assay: total protein half-life in vivo (active degradation + dilution); higher = more stable protein
[1] = E. coli NCM3722 delta-clpP delta-lon delta-hslV, growth: N-lim chemostat, doubling time 6 h
[2] = E. coli NCM3722 delta-clpP, growth: N-lim chemostat, doubling time 6 h
[3] = E. coli NCM3722 delta-hslV, growth: N-lim chemostat, doubling time 6 h
[4] = E. coli NCM3722 delta-lon, growth: N-lim chemostat, doubling time 6 h
[5] = E. coli NCM3722 delta-smpB, growth: N-lim chemostat, doubling time 6 h
[6] = wild type E. coli NCM3722, growth: C-lim chemostat, doubling time 3 h
[7] = wild type E. coli NCM3722, growth: C-lim chemostat, doubling time 6 h
[8] = wild type E. coli NCM3722, growth: C-lim chemostat, doubling time 12 h
[9] = wild type E. coli NCM3722, growth: N-lim chemostat, doubling time 6 h
[10] = wild type E. coli NCM3722, growth: N-lim chemostat, doubling time 12 h
[11] = wild type E. coli NCM3722, growth: P-lim chemostat, doubling time 6 h
[12] = wild type E. coli NCM3722, growth: P-lim chemostat, doubling time 12 h

Sequence	total protein half-life in vivo [1]	total protein half-life in vivo [2]	total protein half-life in vivo [3]	total protein half-life in vivo [4]	total protein half-life in vivo [5]	total protein half-life in vivo [6]	total protein half-life in vivo [7]	total protein half-life in vivo [8]	total protein half-life in vivo [9]	total protein half-life in vivo [10]	total protein half-life in vivo [11]	total protein half-life in vivo [12]
MSFDSLGLSPDILRAVAEQGYREPTPIQQQAIPAVLEGRDLMASAQTGTGKTAGFTLPLLQHLITRQPHAKGRRPVRALILTPTRELAAQIGENVRDYSKYLNIRSLVVFGGVSINPQMMKLRGGVDVLVATPGRLLDLEHQNAVKLDQVEILVLDEADRMLDMGFIHDIRRVLTKLPAKRQNLLFSATFSDDIKALAEKLLHNPLEIEVARRNTASDQVTQHVHFVDKKRKRELLSHMIGKGNWQQVLVFTRTKHGANHLAEQLNKDGIRSAAIHGNKSQGARTRALADFKSGDIRVLVATDIAARGLDIEELPHVVNYELPNVPEDYVHRIGRTGRAAATGEALSLVCVDEHKLLRDIEKLLKKEIPRIAIPGYEPDPSIKAEPIQNGRQQRGGGGRGQGGGRGQQQPRRGEGGAKSASAKPAEKPSRRLGDAKPAGEQQRRRRPRKPAAAQ	4.67 ± 1.2 h	5.49 ± 0.3 h	5.007 ± 0.03 h	5.23 ± 1.5 h	4.98 ± 0.23 h	3.12 h	7.2 h	14.7 ± 0.98 h	5.3 ± 0.071 h	8.71 ± 0.062 h	4.83 ± 0.43 h	9.31 ± 0.65 h
MFVEHNLIKNIKIFTLAFTLTVVLIQLSRFISPLAIIHSSYIFLAWMPLCVMLSILFIFGWRGVVPVLCGMFCTNLWNFHLSFLQTAVMLGSQTFVVLCACAILRWQLGTRWRYGLTSRYVWQRLFWLGLVTPIGIKCSMYLVGSFFDFPLKISTFFGDADAIFTVVDLLSLFTAVLIYNMLFYYLTRMIVSPHFAQILWRRDIAPSLGKEKRAFTLSWLAALSVLLLLLCTPYENDFIAGYLVPVFFIIFTLGVGKLRYPFLNLTWAVSTLCLLNYNQNFLQGVETEYSLAFILAVLISFSVCLLYMVRIYHRSEWLNRRWHLQALTDPLTLLPNFRALEQAPEQEAGKSFCCLRIDNLEFMSRHYGLMMRVHCIRSICRTLLPLMQENEKLYQLPGSELLLVLSGPETEGRLQHMVNILNSRQIHWNNTGLDMGYGAAWGRFDGNQETLQPLLGQLSWLAEQSCAHHHVLALDSREEMVSGQTTKQVLLLNTIRTALDQGDLLLYAQPIRNKEGEGYDEILARLKYDGGIMTPDKFLPLIAQFNLSARFDLQVLESLLKWLATHPCDKKGPRFSVNLMPLTLLQKNIAGRIIRLFKRYHISPQAVILEITEEQAFSNAESSMYNIEQLHKFGFRIAIDDFGTGYANYERLKRLQADIIKIDGVFVKDIVTNTLDAMIVRSITDLAKAKSLSVVAEFVETQQQQALLHKLGVQYLQGYLIGRPQPLAD		6.53 ± 0.1 h	5.86 ± 0.58 h	6.27 ± 0.65 h	5.72 ± 0.47 h		5.29 ± 1.1 h	13.6 ± 0.27 h	6.08 ± 0.22 h	12.2 ± 1.5 h	6.1 ± 0.44 h	13.8 ± 0.87 h
MAWNQPGNNGQDRDPWGSSKPGGNSEGNGNKGGRDQGPPDLDDIFRKLSKKLGGLGGGKGTGSGGGSSSQGPRPQLGGRVVTIAAAAIVIIWAASGFYTIKEAERGVVTRFGKFSHLVEPGLNWKPTFIDEVKPVNVEAVRELAASGVMLTSDENVVRVEMNVQYRVTNPEKYLYSVTSPDDSLRQATDSALRGVIGKYTMDRILTEGRTVIRSDTQRELEETIRPYDMGITLLDVNFQAARPPEEVKAAFDDAIAARENEQQYIREAEAYTNEVQPRANGQAQRILEEARAYKAQTILEAQGEVARFAKLLPEYKAAPEITRERLYIETMEKVLGNTRKVLVNDKGGNLMVLPLDQMLKGGNAPAAKSDNGASNLLRLPPASSSTTSGASNTSSTSQGDIMDQRRANAQRNDYQRQGE [P0ABC7]	7 ± 0.75 h		6.71 ± 0.23 h	6.55 ± 0.23 h	6.38 ± 0.49 h	2.99 ± 0.1 h	6.35 ± 0.6 h	13.1 ± 1 h	6.52 ± 0.65 h	13.8 ± 0.55 h	6.06 ± 0.31 h	13.98 ± 0.078 h
MMILVTGGARSGKSRHAEALIGDSSQVLYIATSQILDDEMAARIEHHRQGRPEHWRTVERWQHLDELIHADINPNEVVLLECVTTMVTNLLFDYGGDKDPDEWDYQAMEQAINAEIQSLIAACQRCPAKVVLVTNEVGMGIVPESRLARHFRDIAGRVNQQLAAAANEVWLVVSGIGVKIK [P0AE76]	4.52 h	3.9 h	4.32 h		4.68 h		5.17 h	10.5 h	3.85 h	8.3 h	5.94 h	9.83 ± 1.8 h
MIPDVSQALAWLEKHPQALKGIQRGLERETLRVNADGTLATTGHPEALGSALTHKWITTDFAEALLEFITPVDGDIEHMLTFMRDLHRYTARNMGDERMWPLSMPCYIAEGQDIELAQYGTSNTGRFKTLYREGLKNRYGALMQTISGVHYNFSLPMAFWQAKCGDISGADAKEKISAGYFRVIRNYYRFGWVIPYLFGASPAICSSFLQGKPTSLPFEKTECGMYYLPYATSLRLSDLGYTNKSQSNLGITFNDLYEYVAGLKQAIKTPSEEYAKIGIEKDGKRLQINSNVLQIENELYAPIRPKRVTRSGESPSDALLRGGIEYIEVRSLDINPFSPIGVDEQQVRFLDLFMVWCALADAPEMSSSELACTRVNWNRVILEGRKPGLTLGIGCETAQFPLPQVGKDLFRDLKRVAQTLDSINGGEAYQKVCDELVACFDNPDLTFSARILRSMIDTGIGGTGKAFAEAYRNLLREEPLEILREEDFVAEREASERRQQEMEAADTEPFAVWLEKHA [P0A6W9]	4.67 ± 0.094 h	4.57 ± 0.48 h	4.96 ± 0.18 h	5.15 ± 0.6 h	4.55 ± 0.18 h	3.36 ± 0.2 h	6.04 ± 0.38 h	9.533 ± 0.031 h	4.35 ± 0.33 h	7.2 ± 0.27 h	6.1209 ± 0.0053 h	11.4 ± 0.35 h
MITLWGRNNSTNVKKVLLTLEELELPYEQILAGREFGINHDADFLAMNPNGLVPLLRDDESDLILWESNAIVRYLAAQYGQKRLWIDSPARRAEAEKWMDWANQTLSNAHRGILMGLVRTPPEERDQAAIDASCKECDALFALLDAELAKVKWFSGDEFGVGDIAIAPFIYNLFNVGLTWTPRPNLQRWYQQLTERPAVRKVVMIPVS [P0ACA7]	5.15 ± 0.42 h	4.47 ± 0.4 h	5.27 ± 1.5 h	4.6 ± 0.45 h	4.53 ± 0.24 h	2.9 ± 0.27 h	6.21 ± 0.49 h	9.3 ± 0.54 h	4.49 ± 0.48 h	7.89 ± 0.23 h	5.74 ± 0.36 h	12.1 ± 0.25 h
MSNLAAMLRLPANLKSTQWQILAGPILILLILSMMVLPLPAFILDLLFTFNIALSIMVLLVAMFTQRTLEFAAFPTILLFTTLLRLALNVASTRIILMEGHTGAAAAGKVVEAFGHFLVGGNFAIGIVVFVILVIINFMVITKGAGRIAEVGARFVLDGMPGKQMAIDADLNAGLIGEDEAKKRRSEVTQEADFYGSMDGASKFVRGDAIAGILIMVINIVGGLLVGVLQHGMSMGHAAESYTLLTIGDGLVAQIPALVISTAAGVIVTRVSTDQDVGEQMVNQLFSNPSVMLLSAAVLGLLGLVPGMPNLVFLLFTAGLLGLAWWIRGREQKAPAEPKPVKMAENNTVVEATWNDVQLEDSLGMEVGYRLIPMVDFQQDGELLGRIRSIRKKFAQEMGFLPPVVHIRDNMDLQPARYRILMKGVEIGSGDAYPGRWLAINPGTAAGTLPGEATVDPAFGLNAIWIESALKEQAQIQGYTVVEASTVVATHLNHLISQHAAELFGRQEAQQLLDRVAQEMPKLTEDLVPGVVTLTTLHKVLQNLLDEKVPIRDMRTILETLAEHAPIQSDPHELTAVVRVALGRAITQQWFPGKDEVHVIGLDTPLERLLLQALQGGGGLEPGLADRLLAQTQEALSRQEMLGAPPVLLVNHALRPLLSRFLRRSLPQLVVLSNLELSDNRHIRMTATIGGK						2.13 ± 0.33 h	3.87 h	8.63 h				14.5 h
MNNIQLAHGSGGQAMQQLINSLFMEAFANPWLAEQEDQARLDLAQLVAEGDRLAFSTDSYVIDPLFFPGGNIGKLAICGTANDVAVSGAIPRYLSCGFILEEGLPMETLKAVVTSMAETARAAGIAIVTGDTKVVQRGAVDKLFINTAGMGAIPANIHWGAQTLTAGDVLLVSGTLGDHGATILNLREQLGLDGELVSDCAVLTPLIQTLRDIPGVKALRDATRGGVNAVVHEFAAACGCGIELSEAALPVKPAVRGVCELLGLDALNFANEGKLVIAVERNAAEQVLAALHSHPLGKDAALIGEVVERKGVRLAGLYGVKRTLDLPHAEPLPRIC	3.91 ± 0.43 h	3.16 ± 0.4 h	3.27 ± 0.042 h	3.76 ± 0.14 h	3.59 ± 0.38 h	2.96 ± 0.3 h		9.14 ± 0.81 h	3.28 ± 0.28 h	4.8 ± 0.18 h	4.98 ± 0.13 h	9.482 ± 0.012 h
MLNQLDNLTERVRGSNKLVDRWLHVRKHLLVAYYNLVGIKPGKESYMRLNEKALDDFCQSLVDYLSAGHFSIYERILHKLEGNGQLARAAKIWPQLEANTQQIMDYYDSSLETAIDHDNYLEFQQVLSDIGEALEARFVLEDKLILLVLDAARVKHPA [P0AFX4]		6.38 h	2.42 ± 0.21 h	2.8 h	2.38 ± 0.34 h		3.06 ± 0.11 h	5.14 ± 0.081 h	2.51 ± 0.29 h	3.09 ± 0.19 h	3.51 h	5.62 ± 0.091 h
